Measured values reported in patent publication US20220356470.

Assays:
[1] = system: Type I-C Cascade-Cas3 D370A (helicase mutant) Cas3 D370A (Pseudomonas aeruginosa); experiment: cell_activity; settings: smaller deletions; PAM not stated
[2] = system: Type I-C Cascade with Cas3-Cas8 tether (Pseudomonas aeruginosa); experiment: cell_activity; settings: smaller deletions than untethered; PAM not stated

crRNA targeting 200 bp upstream of phzM ; site 200 bp upstream of phzM
activity (% survivors edited) [1]: 25
activity (% survivors with deletion (17/20)) [2]: 85
